Data on 125 sequences can be found in the supplement of paper PMC9112550, “Optimization of the antimicrobial peptide Bac7 by deep mutational scanning” (BMC Biology, 2022).
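Also: peptides expressed intracellularly from a pBAD plasmid library in pooled LB shake-flask culture, induced with 0.3% L-arabinose, DNA abundance read by NGS, three biological replicates, DESeq2 with apeglm shrinkage.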

For this series, the system named is Escherichia coli TOP10. Description: shrunken log2 fold change of peptide-encoding DNA abundance (4.5 h post-induction vs induction); higher = less antimicrobial activity (less host growth inhibition). As to conditions: time post-induction: 4.5 h; library: site-saturation at positions 5, 18, 19, 20.
As for RRIRTRPPRLPRPRPRPDATPRP, the “shrunken log2 fold change” value was determined as 0.823.
As to RRIRDRPPRLPRPRPRPSSCPRP, the “shrunken log2 fold change” value turned out to be 0.00339.
Consider RRIRHRPPRLPRPRPRPQEFPRP, for which the “shrunken log2 fold change” value is -0.00101.
As to RRIRMRPPRLPRPRPRPHQNPRP, the “shrunken log2 fold change” value came to 0.114.
Regarding RRIRPRPPRLPRPRPRPWPMPRP, the “shrunken log2 fold change” value was -0.151.
Next, RRIRQRPPRLPRPRPRPKWKPRP: -0.0193; RRIRNRPPRLPRPRPRPKHNPRP: -0.434; RRIRMRPPRLPRPRPRPSWYPRP: -0.506.
For the sequence RRIRYRPPRLPRPRPRPSMGPRP, the “shrunken log2 fold change” value is -0.613.
Next, RRIRLRPPRLPRPRPRPILLPRP: -0.235.
As for RRIRIRPPRLPRPRPRPDCQPRP, the figure is 0.000528.
As for RRIRVRPPRLPRPRPRPQCEPRP, the “shrunken log2 fold change” value is -0.0122.
As for RRIRWRPPRLPRPRPRPTTYPRP, the “shrunken log2 fold change” value is -0.187.
In the case of RRIRNRPPRLPRPRPRPTRNPRP, the “shrunken log2 fold change” value was 0.0941.
For RRIRFRPPRLPRPRPRPTHKPRP, the “shrunken log2 fold change” value is -0.0458.
Turning to RRIRDRPPRLPRPRPRPYDHPRP, the “shrunken log2 fold change” value is -0.361.
RRIRWRPPRLPRPRPRPYYAPRP: the “shrunken log2 fold change” value was -0.195.
Next, RRIRNRPPRLPRPRPRPEAMPRP: 0.616.
As for RRIRVRPPRLPRPRPRPWNAPRP, the “shrunken log2 fold change” value is -0.0893.
RRIRHRPPRLPRPRPRPQSWPRP: the “shrunken log2 fold change” value worked out at 0.0657.
As for RRIRTRPPRLPRPRPRPFNQPRP, the “shrunken log2 fold change” value is -0.163.
As for RRIRWRPPRLPRPRPRPLYAPRP, the figure is 0.188.
As for RRIRVRPPRLPRPRPRPDMPPRP, the figure is -0.264.
As to RRIRNRPPRLPRPRPRPFRNPRP, the “shrunken log2 fold change” value is -0.515.
In the case of RRIRGRPPRLPRPRPRPAEVPRP, the “shrunken log2 fold change” value turned out to be 0.31.
Turning to RRIRWRPPRLPRPRPRPFVVPRP, the “shrunken log2 fold change” value is -0.242.
Consider RRIRYRPPRLPRPRPRPQCPPRP, for which the “shrunken log2 fold change” value is -0.15.
For RRIRQRPPRLPRPRPRPEWPPRP, the “shrunken log2 fold change” value was -0.0954.
In the case of RRIRERPPRLPRPRPRPRSNPRP, the “shrunken log2 fold change” value was -0.0433.
As for RRIRYRPPRLPRPRPRPCHHPRP, the “shrunken log2 fold change” value is -0.12.
As for RRIRRRPPRLPRPRPRPPNIPRP, the “shrunken log2 fold change” value was -0.0641.
As for RRIRLRPPRLPRPRPRPVKWPRP, the “shrunken log2 fold change” value is 0.215.
As for RRIRLRPPRLPRPRPRPSIFPRP, the figure is -0.709; as for RRIRLRPPRLPRPRPRPDLYPRP, -0.0419.
On to RRIRHRPPRLPRPRPRPMTYPRP, for which the “shrunken log2 fold change” value was -0.19.
For the sequence RRIRMRPPRLPRPRPRPWMWPRP, the “shrunken log2 fold change” value is -0.0668.
As for RRIRCRPPRLPRPRPRPASDPRP, the figure is -0.0092; as for RRIRMRPPRLPRPRPRPHNPPRP, -0.329; as for RRIRPRPPRLPRPRPRPGADPRP, 0.407.
With RRIRIRPPRLPRPRPRPCNEPRP, the “shrunken log2 fold change” value is -0.0608.
In the case of RRIRTRPPRLPRPRPRPQVWPRP, the “shrunken log2 fold change” value turned out to be 0.112.
Next, RRIRKRPPRLPRPRPRPGDFPRP: 0.18; RRIRWRPPRLPRPRPRPWTNPRP: 0.0442.
In the case of RRIRMRPPRLPRPRPRPARTPRP, the “shrunken log2 fold change” value amounted to 1.53.
Turning to RRIRKRPPRLPRPRPRPPIPPRP, the “shrunken log2 fold change” value turned out to be 0.987.
In the case of RRIRVRPPRLPRPRPRPELHPRP, the “shrunken log2 fold change” value amounted to 0.133.
Next, RRIRGRPPRLPRPRPRPFRVPRP: -0.149; RRIRVRPPRLPRPRPRPHDTPRP: -0.212.
In the case of RRIRQRPPRLPRPRPRPSWLPRP, the “shrunken log2 fold change” value is -0.213.
Consider RRIRPRPPRLPRPRPRPWAMPRP, for which the “shrunken log2 fold change” value is -0.223.
Consider RRIRCRPPRLPRPRPRPSVVPRP, for which the “shrunken log2 fold change” value was -0.261.
For RRIRMRPPRLPRPRPRPAPQPRP, the “shrunken log2 fold change” value is 1.77.
For RRIRMRPPRLPRPRPRPKFWPRP, the “shrunken log2 fold change” value worked out at 1.87.
On to RRIRMRPPRLPRPRPRPFVNPRP, for which the “shrunken log2 fold change” value is 1.6.
Take RRIRYRPPRLPRPRPRPELAPRP: the “shrunken log2 fold change” value is -0.0264.
On to RRIRRRPPRLPRPRPRPVVYPRP, for which the “shrunken log2 fold change” value was 0.152.
Next, RRIRTRPPRLPRPRPRPNGIPRP: 0.0301.
Next, RRIRQRPPRLPRPRPRPLKYPRP: -0.0559; RRIRRRPPRLPRPRPRPMQKPRP: 0.026; RRIRARPPRLPRPRPRPTPEPRP: 0.694.
In the case of RRIRWRPPRLPRPRPRPCPTPRP, the “shrunken log2 fold change” value turned out to be 0.0714.
RRIRERPPRLPRPRPRPADKPRP: the “shrunken log2 fold change” value was -0.187.
RRIRGRPPRLPRPRPRPKFRPRP: the “shrunken log2 fold change” value turned out to be 0.112.
On to RRIRNRPPRLPRPRPRPFELPRP, for which the “shrunken log2 fold change” value was 0.00621.
With RRIRERPPRLPRPRPRPQKMPRP, the “shrunken log2 fold change” value was -0.28.
As for RRIRDRPPRLPRPRPRPETDPRP, the figure is 0.0208; as for RRIRKRPPRLPRPRPRPDENPRP, 1.42; as for RRIRPRPPRLPRPRPRPRCIPRP, -0.2.
On to RRIRHRPPRLPRPRPRPVVHPRP, for which the “shrunken log2 fold change” value is -0.115.
As for RRIRQRPPRLPRPRPRPGYSPRP, the “shrunken log2 fold change” value was -0.00603.
Next, RRIRKRPPRLPRPRPRPRITPRP: 0.227; RRIRQRPPRLPRPRPRPGYEPRP: 0.00854.
On to RRIRWRPPRLPRPRPRPLSIPRP, for which the “shrunken log2 fold change” value was -0.0528.
Take RRIRARPPRLPRPRPRPDYFPRP: the “shrunken log2 fold change” value was -0.0428.
On to RRIRDRPPRLPRPRPRPKSHPRP, for which the “shrunken log2 fold change” value is -0.204.
In the case of RRIRKRPPRLPRPRPRPKKNPRP, the “shrunken log2 fold change” value amounted to 0.555.
Turning to RRIRGRPPRLPRPRPRPVQNPRP, the “shrunken log2 fold change” value was 0.588.
On to RRIRPRPPRLPRPRPRPSGWPRP, for which the “shrunken log2 fold change” value is 0.57.
As for RRIRSRPPRLPRPRPRPMKAPRP, the figure is -0.00133; as for RRIRSRPPRLPRPRPRPCTNPRP, -0.256; as for RRIRGRPPRLPRPRPRPNQMPRP, 1.6.
For the sequence RRIRSRPPRLPRPRPRPFHNPRP, the “shrunken log2 fold change” value is -0.0339.
With RRIRFRPPRLPRPRPRPYPKPRP, the “shrunken log2 fold change” value was -0.323.
For the sequence RRIRMRPPRLPRPRPRPAAIPRP, the “shrunken log2 fold change” value worked out at 0.456.
Consider RRIRDRPPRLPRPRPRPFLPPRP, for which the “shrunken log2 fold change” value was -0.358.
As for RRIRPRPPRLPRPRPRPYDMPRP, the “shrunken log2 fold change” value is -0.748.
Turning to RRIRDRPPRLPRPRPRPCKWPRP, the “shrunken log2 fold change” value is -0.203.
As to RRIRDRPPRLPRPRPRPVMQPRP, the “shrunken log2 fold change” value stood at 0.023.
Next, RRIRGRPPRLPRPRPRPQMPPRP: 0.225.
On to RRIRQRPPRLPRPRPRPGYRPRP, for which the “shrunken log2 fold change” value is -0.354.
With RRIRYRPPRLPRPRPRPIQHPRP, the “shrunken log2 fold change” value was -0.89.
As for RRIRNRPPRLPRPRPRPDIWPRP, the figure is -0.394; as for RRIRVRPPRLPRPRPRPSVFPRP, -0.126.
For RRIRTRPPRLPRPRPRPPKWPRP, the “shrunken log2 fold change” value was found to be 0.181.
RRIRGRPPRLPRPRPRPTCEPRP: the “shrunken log2 fold change” value was found to be 1.1.
Consider RRIRDRPPRLPRPRPRPKEAPRP, for which the “shrunken log2 fold change” value was -0.0217.
In the case of RRIRCRPPRLPRPRPRPRLCPRP, the “shrunken log2 fold change” value worked out at 0.427.
Regarding RRIRQRPPRLPRPRPRPQEIPRP, the “shrunken log2 fold change” value was determined as 0.0292.
RRIRIRPPRLPRPRPRPFPMPRP: the “shrunken log2 fold change” value was -0.412.
As for RRIRDRPPRLPRPRPRPDFKPRP, the figure is 0.00362; as for RRIRERPPRLPRPRPRPMLLPRP, -0.166.
Regarding RRIRWRPPRLPRPRPRPHDYPRP, the “shrunken log2 fold change” value amounted to 0.0166.
As for RRIRRRPPRLPRPRPRPKCHPRP, the “shrunken log2 fold change” value was 0.0704.
Turning to RRIRQRPPRLPRPRPRPVCNPRP, the “shrunken log2 fold change” value is -0.0714.
Consider RRIRRRPPRLPRPRPRPADVPRP, for which the “shrunken log2 fold change” value worked out at 0.146.
Take RRIRKRPPRLPRPRPRPEWPPRP: the “shrunken log2 fold change” value was 0.273.
Next, RRIRGRPPRLPRPRPRPFVGPRP: -0.26; RRIRKRPPRLPRPRPRPLFEPRP: 0.513; RRIRVRPPRLPRPRPRPDWCPRP: 0.0302.
With RRIRDRPPRLPRPRPRPGVVPRP, the “shrunken log2 fold change” value came out at 0.708.
As to RRIRHRPPRLPRPRPRPAIMPRP, the “shrunken log2 fold change” value was -0.233.
RRIRKRPPRLPRPRPRPFKIPRP: the “shrunken log2 fold change” value is 0.00571.
Regarding RRIRPRPPRLPRPRPRPWEQPRP, the “shrunken log2 fold change” value was found to be 0.201.
As for RRIRYRPPRLPRPRPRPKYWPRP, the figure is -0.726; as for RRIRRRPPRLPRPRPRPYYVPRP, -0.427.
On to RRIRKRPPRLPRPRPRPQTKPRP, for which the “shrunken log2 fold change” value was 0.069.
In the case of RRIRSRPPRLPRPRPRPFFWPRP, the “shrunken log2 fold change” value stood at 0.485.
Take RRIRIRPPRLPRPRPRPLFVPRP: the “shrunken log2 fold change” value is -0.642.
As for RRIRARPPRLPRPRPRPYLEPRP, the figure is 0.982; as for RRIRPRPPRLPRPRPRPTSHPRP, -0.235; as for RRIRVRPPRLPRPRPRPYHVPRP, -0.055.
Turning to RRIRERPPRLPRPRPRPHNMPRP, the “shrunken log2 fold change” value is -0.51.
Next, RRIRMRPPRLPRPRPRPDHYPRP: -0.0146; RRIRERPPRLPRPRPRPPWWPRP: 0.537.
Regarding RRIRQRPPRLPRPRPRPPQMPRP, the “shrunken log2 fold change” value is -0.089.
